Results published in patent publication US8426686B2, “Polyunsaturated fatty acid production in heterologous organisms using PUFA polyketide synthase systems” (DSM IP Assets B.V., priority 2006, dated 2013).

B1: ScACS-3: Schizochytrium acyl-CoA synthetase, SEQ ID NO:86/87 (protein, listed as Schizochytrium sp.)
chain: MGCSGSKPAAPGEVPAVQGYEVTEEVAPGPYDPEKGPYYVSNKAERREIIFAAKGVASEATTPAMTLSKMFRKAAEASKDEVALAVEWPVPEIGADGKIPDSLPLDKWRTWTFGQYYADSHAMARAIVALGAERFDGVTIFGFNSPFWLMAQMAATLSTTLPAGIYPTDTAEQVRYKLRYTDTAVAFCGVEKEFTMLRAAVEDAPDLKAIVCWAHLPMVKTITREDGSKVKVMSWQEALALGEITPPAEVDARIEAQNPGDCAELVFTSGTTGLPKAVMLSHDNLCFAITSIVSTLEDFGRSGPESHLSYLPLSHIAGQEMDVLLPLVVTAFRESHHAVYFVRPYDLKTGTLIDRVKTVQPTAFLGVPRVYEKIMAKMRAKGASVKGLKKKIVQYSKKKGLEYQRNLEVGGSGGKPSNYGFAEKKVLSKVKEALGFTRLKFAISGAAPMSREVQEYFAGIGIAILDVYGASESTGGVTGNSIKAHQFGTVGHTLPGMDVRVFQKAEGGDSSAETGLGELREPARAKDIFHPSEEEQGEVCFRGRSVMLGYMANPKLGEEHVAEVERKNASAIDRHGWYHSGDKGACSKKNMFVITGRYKEIIIGAGGENIAPLPMEDAVKSLAPGVANAIMIGDKRKFNIMLITLRAEGATGEFPGSDNLDPDVRSIGSDSTRTIQKAMADSKWIEHVRDAISKTNANGDACQSNAWKIGRFTILPYDISIVGGELTPTLKLKRNFVDEKYKAVIDHVYAHEGDSKDLTYVPCPIDRVPRKISGDESAAGAASPEANVAEPVTAESGSPSEVTTEAKPANETDDAESKDAAAPLAAKVDTTVPDVAQPQAAS
B2: ScACS-5: Schizochytrium acyl-CoA synthetase, SEQ ID NO:90/91 (protein, listed as Schizochytrium sp.)
chain: MLEMREEVVKHEGEAAHFKGVKMKVFPNGFQTMVDIFKVPFEKQVMKNDLLVDETGRMTFQEVFDTAAALGDALVNEYGVEKGDRVVALSKNRNEYIVTMIAATSVGAIFAPLNSYWKTEQLSYGLDDSGAKVVVCDADRYVQLEPLLDGRASALERVLLLRGPGTEKFRPNAKTTAFDEVISKHAGARMPPFPCQKDDPAMIMYTSGTTGNPKGVVLTHRSIGEAMTGAVAAMTYEKTLAATRAGETLPEPEDPSLSAFLLAVPLFHVTGHHCVGLLSIISCRKIVLMSKWDPKLALELIESERITNFTGVPTMALDLMTHPDFKKRDTSTLKSLGGGGAAPPSTMVNDIDKNFKQASPLQAWGMTETNGIATLTEGDMYRRKPESCGKAIPNVEIAIWNARDEPVPAGAEGELVIRGSTCLKEYWNKPEATAKSITAEGWFRTGDIGVIDEEGFLQLKGRSKEIIIRGGENISCVVVENAVYNHDDINEVAAIPVPHPTLGEEVGIAVFSQSGARPSLQSIRDVCGNLARYEMPTHIYYWPEQLPRGDTGKIHKRTILADIKAGKVKDEAVPASKL
B3: DAGAT: Schizochytrium diacylglycerol acyltransferase, SEQ ID NO:100/101; gene knocked out in strain B73-8 (protein, listed as Schizochytrium sp.)
chain: MERPQAQASPARSEARRRRGDRSKGFADEDGETSVNTPNGMQTPYSTSMGSVSSYSSSGDYAMSEAEGSEVDPADDRMGDSIGSKPSSSSVTGRRRLTQEERDYFLRLEKEWREEDAWADQPGSWYSMLAWMPVLIGLRVFNVLLSIAFWPVSFVARVFFGKKIHTVSFWDVPLSRRKQTAVVLLFVMLLPMVVVVYSWTLVLLLFPLTTFPTLCYMVWIIYVDKSPETGSRRPFLRYWKMWRHFANYFPLRLIRTTPLDSRRKYVFCYHPHGIISLGAFGNFATDSTGFSRKFPGIDLRVLTLALNFYCPLLREFLLYLGLCSAAKKSCNQILQRGPGSAIMLVVGGAAESLDSQPGTYRLTLGRKGFVRVALDNGADLVPVLAFGENDVFDTVYLPPNSWARNVQEFVRKKLGFATPIFSGRGIFQYNMGLMPHRRPIIVVVGKPIKMPKIPDELKGRALSTTAEGVALVDKYHEKYVKALRELWNLYKERWAVHRQGSLLIQK
B4: ScACS-8: Schizochytrium acyl-CoA synthetase, SEQ ID NO:96/97 (protein, listed as Schizochytrium sp.)
chain: MDAEKVIKAGAAAGAAYLGWKYLDEKHGISHDLELARRLLKLKKEINERNTKRVFNVTNMWYEAYAKNPKKPALLYLDEVVTYQDMEDRSNQVANWLLSKGLKRGDTVALLMENRPEFVISWLGMTKIGVKVALINTSIKQKPLLHCLKISGCKIVLFGSELAEPILDIKDELADLGIELAAEGAREASPDWIEVVNPEIEASPKTATSPKLREGIGMQDVFGFIYTSGTTGLPKAAVILHQKMFSFGALMTNAFQCTQDDIVYTCLPLFHSAGGGLGIGIMLYTGATVVIKRKFSVTDFWSDCVKYKCTVVQYIGELCRYLVMAESRPEETQHKVRLAIGNGLRPEIWAEFQERFQIPQIGEFYGATEGNGALVQHCTKPEDRGAVGRMGSLLMRVTGVKFARFDVLEEAPVRGADGFCIECDVDEPGELLFPIRDNDPSSAFAGYNDPKATAKKIITDAFTKGDKYFRTGDLLSRDARGRIYFRDRIGDTFRCKGENVSTSEVAEVLSTYPGIEELNIYGVQIPNNEDGRFPCAALTPKDSDLSNVDLKGFYEHAKKNLPSYSIPMFIRVQPVMPVTATMKHQKVQLRKEGMDIHVIKDPMYWLHDVKKEYDPLTEEDYARIIGQRARL

What was measured:
[1] = tested on: acyl-CoA synthetases; assay: In vitro activity assay of Schizochytrium FAS-KO cell free homogenate with Triacsin C (HIP extraction, normal phase TLC, phosphorimage); format: biochemical; conditions: FAS-KO sample; Triacsin C 0, 25, 100 or 200 uM for 10 minutes, then ATP and Mg+2, additional 20 minutes; effect at higher concentrations
Protocol: An example of a protocol for in vitro activity assays of both FAS and PUFA synthase activities is as follows. In a final volume of 100 uL, mix the enzyme preparation and Buffer A (volume of these 2 components=90 uL) plus the following components added as a cocktail (in 10 uL) to yield the final concentrations indicated in parenthesis: malonyl-CoA (50 uM—a mixture of cold and malonyl-2-^14C-CoA such that the final concentration of radiolabel is 0.65 μCi/mL), NADH (1 mM), NADPH (1 mM) and acetyl-CoA (10 uM). These components and additional components can be adjusted depending on the requirements of the particular experiments. The assay reactions are carried out in glass tubes in a room temperature (˜21° C.) water bath. The time of incubation is dependant on the experimental requirements. The reactions are stopped by one of two methods depending on the work-up protocol. For conversion of fatty acids to fatty acid methyl-esters (FAMEs) using an acidic method, the reaction is stopped by adding the FAME reagent (see below). For extraction of lipids without derivatization, the reaction is stopped by addition of 125 uL of isopropanol:acetic acid (4:1 v/v) (see below). […]

[2] = tested on: yeast; assay: FAME analysis of yeast expressing Schizochytrium PUFA synthase and Het I with co-expressed acyl-CoA synthetase; format: cell-based, Saccharomyces cerevisiae; conditions: data not shown
From the text: More specifically, the yeast expression system described in the Examples above was modified to accommodate introduction of the fifth ACoAS gene (i.e., the yeast also contained OrfsA, B and C of the Schizochytrium PUFA synthase system and a PPTase (Het I from Nostoc)) using 4 vectors. Yeast expression vectors in which two genes can be cloned (the pESC vectors) were obtained from Stratagene. These vectors are similar to and compatible with the pYES vectors described above. […] This provides confirmation that the accumulation of the products of the PUFA synthase in heterologous host can be increased by co-expression of enzymes that may be more efficient at utilization of those products.
In subsequent experiments, ScACS-3, ScACS-5, ScACS-6 and ScACS-8 were also tested in yeast that contained the genes encoding the Schizochytrium PUFA synthase system (e.g., sOrfA, sOrfB and nOrfC, and HetI), using similar methods as described above.

[3] = tested on: Schizochytrium; assay: DAGAT gene knock out in Schizochytrium strain B73-8, lipid profile; format: cell-based; conditions: inactivation of the DAGAT gene in Schizochytrium B73-8
From the text: Using the knock out technology described above in Example 1 for FAS in Schizochytrium, the inventors similarly knocked out the DAGAT gene (comprising SEQ ID NO:100) in a Schizochytrium strain, denoted B73-8. […] Accordingly, the inventors concluded that this DAGAT is the primary enzyme responsible for TAG synthesis in Schizochytrium.

Molecule	DHA production in yeast as compared to in the absence of the added acyl-CoA synthetase gene [2]	other results
CCC/C=C/C/C=C/C=C/C=N/NN=O [Triacsin C]	–	radiolabel in the FFA band (loss after addition of ATP and Mg+2) [1]: blocked the loss of radiolabel from the FFA band
B1	increased DHA production	–
B2	increased DHA production	–
B3	–	reduction in TAG [3]: ~90%; reduction in mg FAME/gm biomass [3]: ~80%
B4	increased DHA production	–
